Data as given in patent publication US20230346919A1.

Target: Spike (S) protein of the SARS-CoV-2 clinical isolate, strain 2019 n-CoV/USA_WA1/2020 (SARS-CoV-2 strain 2019 n-CoV/USA_WA1/2020) (UniProt P0DTC2)
Assay: cell-based or functional assay

Substance	EC50, inhibition of SARS-CoV-2 infection (FRNT, Vero E6 cells)	EC50, neutralization of SARS-CoV-2 (FRNT, Vero E6 cells)
human ACE2-Fc (hACE2 residues 1-615, HRV-3C site, human IgG1 Fc) (from UniProt Q9BYF1 18-615) (Fc fusion)	12.6 µg/mL	–
mAb S309 (antibody)	–	0.081 µg/mL
